We go through one molecule from patent US20220347267A1, “METHODS TO IMPROVE PATIENT RESPONSE TO IMMUNE CHECKPOINT INHIBITORS AND FUNCTIONAL TESTS TO PREDICT RESPONSE” (Biomarker Strategies, LLC, priority 2019, published 2022).

Common to all, as to experiment: PD-L1 confocal microscopy, IFNγ stimulation
What all share (format): cell-based, human

For one assay, the system named is H460 cells. The text has this: (§1) To obtain fluorescent specimens, similar procedures are used when compared to flow cytometry. The sample is stained with a primary antibody that is specific for a protein of interest. The primary antibody can be conjugated to a fluorescent molecule or a secondary antibody can be used that attaches to the primary antibody. For intracellular staining of cells, the specimen can be fixed and permeabilized using methanol, formalin or a fixative containing a detergent. Subsequently, the specimen is stained with primary and/or secondary antibodies. For this dataset, samples were stained for PD-L1 in suspension using the same protocol that was used for the flow cytometry dataset. The protocol used was as follows:
(§2) Samples (150 uL per tube) were first incubated with a blocking reagent (BD cat #564219, Lot #9305316) at 1:20 for 15 min at room temperature. Alexa 488-conjugated PD-L1 antibody (CST cat #25048, Lot #2) and Alexa 488-conjugated isotype antibody (CST cat #2975, Lot #16) were added to experimental samples and isotype control samples, respectively, at a manufacturer recommended dilution of 1:50 and the samples were incubated for 30 min at room temperature. Other fluorophore-conjugates and PD-L1 antibodies, including those targeting different epitopes, can be readily used. Additionally, antibodies detecting other biomarkers with appropriate processing (e.g. permeabilization of cells) to predict response (e.g. p-STAT-1) can be used. Following the incubation with an antibody, 1 mL of 2% FBS in PBS was added to each tube to dilute the antibody. Samples were then centrifuged at 200 rcf for 5 min. Supernatant was carefully aspirated and 200 uL of 10% neutral buffered formalin (NBF) was added. Samples were then fixed for 10 min at room temperature. NBF was diluted with 1 mL of 2% FBS in PBS and the samples were centrifuged at 200 rcf for 5 min. Supernatant was aspirated and the cells were resuspended in 0.5 mL of 2% FBS in PBS for flow cytometric analysis. In this experiment, 10% NBF was used to fix cells, but other fixatives, for example, 4% paraformaldehyde can be used. For localization experiments an anti-phosphotyrosine antibody, anti-human/mouse, PE-Vio® 770 (Miltenyi Biotec, Cat #130-109-112) and an anti-PD-L1 antibody, anti-human, Brilliant Violet 650 (BV650; BD Biosciences, Cat #563740) were used. […]
(§3) PD-L1 was assessed in four cell lines (FIG. 35A). PD-L1 was quantified by analyzing FITC-PD-L1 using an 8-bit photomultiplier tube and quantified as raw arbitrary units (FIG. 35B). The PD-L1 expression of the four cell lines was quantified in treated and untreated conditions. […] Thus, PD-L1 expression can be measured qualitatively and quantitatively using confocal microscopy and other fluorescent microscopy techniques.

The next assay deals with H1299 cells.
Description: as §1, §2, §3

The subject of a further assay is SKMES1 cells.
Description: as §1, §2, §3

A further assay relates to H1650 cells.
Description: as §1, §2, §3

B1: IFNγ: human IFNγ, modulator (10 ng/ml; Sigma Aldrich) (protein, UniProt P01579 24-161, looked up)
Interferon gamma: QDPYVKEAENLKKYFNAGHSDVADNGTLFLGILKNWKEESDRKIMQSQIVSFYFKLFKNFKDDQSIQKSVETIKEDMNVKFFNSNKKKRDDFEKLTNYSVTDLNVQRKAIHELIQVMAELSPAAKTGKRKRSQMLFRG
For the molecule B1, the “PD-L1 expression by confocal microscopy, untreated and IFNγ treated” value is “adaptive expression” in the assay with H460 cells, “negative” with H1299 cells, “innate expression” with SKMES1 cells and “negative” in the assay with H1650 cells.
